Test results: paper PMC12713037, “FBXO44 Regulates FOXP1 Degradation Through AURKA‐Dependent Phosphorylation to Promote Colorectal Cancer Progression” (Advanced Science, 2025)

Legend:
[1] = target: FBXO44 (F-box only protein 44) (UniProt Q9H4M3); assay: co-IP with anti-Flag, Western blot; details: reference: Myc-FOXP1 wild type with His-AURKA; sites S440
[2] = target: T1, Purified Myc-FOXP1 (UniProt Q9H334 1-677); assay: pull-down; GST-FBXO44 coupled to glutathione-Sepharose beads incubated with purified Myc-FOXP1; retained proteins analysed by immunoblot; details: both partners purified
T1 construct: Forkhead box protein P1 (FOXP1), Myc-tagged, purified for the GST pull-down; source: purified
T1 sequence (looked up): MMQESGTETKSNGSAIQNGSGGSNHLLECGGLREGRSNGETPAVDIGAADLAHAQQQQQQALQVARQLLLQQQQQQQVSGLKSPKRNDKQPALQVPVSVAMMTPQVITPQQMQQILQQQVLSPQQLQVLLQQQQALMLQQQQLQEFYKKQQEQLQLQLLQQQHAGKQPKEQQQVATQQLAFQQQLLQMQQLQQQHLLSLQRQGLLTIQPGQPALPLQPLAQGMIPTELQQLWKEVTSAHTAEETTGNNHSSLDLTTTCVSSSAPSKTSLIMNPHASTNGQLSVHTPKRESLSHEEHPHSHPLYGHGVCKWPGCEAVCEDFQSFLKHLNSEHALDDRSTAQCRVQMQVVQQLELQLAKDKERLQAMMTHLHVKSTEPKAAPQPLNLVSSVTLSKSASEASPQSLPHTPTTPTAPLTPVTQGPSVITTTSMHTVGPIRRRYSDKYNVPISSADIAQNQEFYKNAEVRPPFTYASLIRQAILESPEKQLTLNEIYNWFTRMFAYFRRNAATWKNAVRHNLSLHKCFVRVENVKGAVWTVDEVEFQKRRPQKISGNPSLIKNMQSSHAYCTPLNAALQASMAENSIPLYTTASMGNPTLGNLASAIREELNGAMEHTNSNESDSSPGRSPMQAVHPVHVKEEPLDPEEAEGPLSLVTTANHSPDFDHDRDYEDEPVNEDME

## FOXP1 (Forkhead box protein P1) (from UniProt Q9H334) Myc-FOXP1 S440A with His-AURKA
[1]
  binding against the reference: weaker

B1: Recombinant GST-FBXO44 (natural protein, UniProt Q9H4M3 1-255, looked up)
chain: MAVGNINELPENILLELFTHVPARQLLLNCRLVCSLWRDLIDLVTLWKRKCLREGFITEDWDQPVADWKIFYFLRSLHRNLLHNPCAEEGFEFWSLDVNGGDEWKVEDLSRDQRKEFPNDQVKKYFVTSYYTCLKSQVVDLKAEGYWEELMDTTRPDIEVKDWFAARPDCGSKYQLCVQLLSSAHAPLGTFQPDPATIQQKSDAKWREVSHTFSNYPPGVRYIWFQHGGVDTHYWAGWYGPRVTNSSITIGPPLP
notes: F-box only protein 44 (FBXO44) fused to GST; source: purified from bacteria
[2]
  binding result: binds
